Laboratory results reported in patent publication US7998940B2, “Aptamers to von Willebrand factor and their use as thrombotic disease therapeutics” (Archemix Corp., priority 2004, dated 2011).
Where two headings read alike, the source gives them in different places. Oligonucleotides are written 5' to 3', each unit as a sugar letter and its base; * is a phosphorothioate linkage, no mark a phosphodiester; rarer units and linkages stand in square brackets, end groups in braces. Plain capitals give the bases only. d = 2'-deoxy (DNA); r = 2'-OH (RNA); f = 2'-fluoro

Key:
[1] = molecular target: T1, human vWF A1 domain (SEQ ID NO 5) (Homo sapiens, UniProt P04275, T1381A); assay: 3-point dot blot screen, human vWF A1 domain; type: binding; details: 100 nM human vWF A1 domain
Procedure, shortened: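 Values are ratios of aptamer fraction retained on nitrocellulose with 100 nM vWF A1 domain (human or rabbit) versus a no-protein control. Unique clones from rounds 9 and 12 pools were transcribed, desalted and 5'-32P labeled before this three-point dot blot screen.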

[2] = tested on: rabbit vWF A1 domain (SEQ ID NO 6); assay: 3-point dot blot screen, rabbit vWF A1 domain; type: binding; details: 100 nM rabbit vWF A1 domain, ratio of fraction bound with target to without
Procedure, shortened: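 Rabbit vWF A1 domain binding was screened by dot blot using three conditions: no target protein, human vWF, and rabbit vWF A1 domain at 100 nM (20 nM in the screen run twice). Radiolabeled aptamer bound to nitrocellulose was quantified, and results are expressed as the ratio of bound fraction with protein to bound fraction without protein.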

[3] = tested on: full length human vWF binding to lyophilized platelets; assay: Full length human von Willebrand Factor platelet binding assay (FACS); type: cell-based; details: 5 nM full length human vWF, lyophilized platelets, botrocetin; both bounds in nM
Method: The amount of vWF bound to fixed platelets can be measured with an antibody to vWF. The fluorescence signal from bound antibody incubated with a fluorescein conjugated secondary antibody is then detected and quantified by flow cytometry. The ability of an aptamer of the invention to block vWF binding to platelets is correlated with a reduction in fluorescence signal.
Aptamer potency to block human vWF binding to lyophilized platelets was assessed by flow cytometric analysis. Titrations of aptamers (0 nM, 0.1 nM to 1000 nM) were pre-incubated briefly with 5 nM of full length human vWF in FACS buffer (PBS plus 0.5% bovine serum albumin) at room temperature in a volume of 50 uL. Another 50 uL containing 5 uL of lyophilized platelets plus 1 uL of 0.1 U/uL of botrocetin in FACS buffer was added to aptamer/vWF. This reaction was allowed to proceed for 15 minutes at 37 degrees C. after which 200 uL of FACS buffer was added. Platelets were collected by a 6 minute spin at 1470 RCF and the supernatant was discarded. The pellets were resuspended in 100 uL of FACS buffer containing a 1:100 dilution of anti-vWF antibody and were incubated at room temperature for 30 minutes. After dilution with 200 uL of FACS buffer, the platelets were spun at 1470 RCF for 6 minutes and the supernatant was discarded. The pellets were resuspended in a 1:100 solution of anti-IgG2a-FITC antibody and were incubated in the dark for 30 minutes at room temperature. The entire 100 uL was diluted into 200 uL of FACS buffer and analyzed immediately by flow cytometric analysis in the FACSCAN. Artifactual data from contaminating debris was eliminated from the analysis by drawing a gate around the population of single and aggregated platelets. Mean fluorescent intensity (“MFI”) readings were quantified for each sample analyzed by flow cytometry. Background MFI was subtracted from all data points. Percent inhibition was reported by calculating the percent value of binding of full length human vWF to platelets in the presence of aptamer at a given concentration relative to binding in the absence of any aptamer (see FIG. 7). IC50 values were determined by fitting the percent inhibition of vWF binding to platelets as a function of aptamer concentration to the equation: % inhibition=% inhibitionmax/(1+IC50/aptamer conc.)

[4] = molecular target: T1, human vWF A1 domain (SEQ ID NO 5); assay: dot blot KD determination, human vWF A1 domain
[5] = rRfY aptamers, ratio of fraction bound with target to fraction bound without target
[6] = read-out: human A1 KD, rRfY aptamers, 8 point titration of human vWF A1 domain
[7] = rRdY aptamers, ratio of fraction bound with target to without
[8] = read-out: Human A1 KD, rRdY aptamers, 6 point protein titration
[9] = DNA SELEX 1 aptamers, ratio of fraction bound with target to without
[10] = read-out: Human A1 KD, DNA SELEX 1 aptamers, competition dot blot, 100 nM protein, cold competitor titration

T1 sequence (P04275 with tags, fused parts or gaps T1381A): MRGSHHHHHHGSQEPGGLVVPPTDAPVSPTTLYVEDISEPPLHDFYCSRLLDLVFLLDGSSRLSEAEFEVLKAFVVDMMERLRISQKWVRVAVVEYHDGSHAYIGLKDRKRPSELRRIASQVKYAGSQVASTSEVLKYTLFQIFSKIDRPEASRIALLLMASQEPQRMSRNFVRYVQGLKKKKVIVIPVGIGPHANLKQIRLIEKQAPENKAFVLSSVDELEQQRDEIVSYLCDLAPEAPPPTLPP
Chain of rabbit vWF A1 domain (SEQ ID NO 6) (as listed by the source): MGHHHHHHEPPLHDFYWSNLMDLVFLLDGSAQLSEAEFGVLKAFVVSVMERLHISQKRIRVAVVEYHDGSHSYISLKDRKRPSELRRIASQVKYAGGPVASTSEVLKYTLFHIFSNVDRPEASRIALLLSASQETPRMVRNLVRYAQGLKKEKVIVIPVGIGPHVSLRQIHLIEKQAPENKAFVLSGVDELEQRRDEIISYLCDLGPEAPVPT

Row | Molecule | Screen- Human/No Protein [1, 5] | Screen- Rabbit/No Protein ([2]; rRfY aptamers) | Kd [4, 6] [nM] | Screen- Human/No Protein [1, 9] | Screen- Rabbit/No Protein ([2]; DNA SELEX 1 aptamers) | Kd [4, 10] [nM] | other results
1 | AMX198.G1: rRfY aptamer clone (nucleic acid) rGrGrArGfCrGfCrAfCfUfCrArGfCfCrAfCrArAfCrAfCfUrArAfUrGrGrGrGrArArArGfUfUfCrArArGrGrAfUfUfCfUfUrGrAfCfCrGrGfUrGfCrGfUfUfUfCrGrAfCfCfUfCfUfCfUrGfCfUrArGfC | 1.89 | 1.90 | 45 | – | – | – | Inhibition of full length hVWF binding in FACS assay, IC50 range [3]: no activity
2 | AMX205.H11: rRdY aptamer clone (nucleic acid) rGrGrArGdCrGdCrAdCdTdCrArGdCdCrAdCrGrGdCrAdCrGrAdCrGrGdTrGrAdTrGrGrAdTdTrArGdCrGdCrGrGdTrGdTdCrGrGdTrGrGdTrGdTdCrAdTdTdTdCrGrAdCdCdTdCdTdCdTrGdCdTrArGdC | – | – | – | – | – | – | Screen- Human/No Protein [1, 7]: 2.18; Screen- Rabbit/No Protein ([2]; rRdY aptamers): 2.41; Inhibition of full length hVWF binding in FACS assay, IC50 range [3]: no activity; Kd [4, 8]: 144 nM
3 | AMX201.G1: rRfY aptamer clone (nucleic acid) rGrGrArGfCrGfCrAfCfUfCrArGfCfCrAfCrGfCfUfCrGrGfUrGrGrGrGrArArAfUfUfUfUrArGfCfCfUrArAfUfUrGrGfCfUrAfCfUfUrGfUrGfCrGfUfUfUfCrGrAfCfCfUfCfUfCfUrGfCfUrArGfC | 2.14 | 2.20 | 190 | – | – | – | Inhibition of full length hVWF binding in FACS assay, IC50 range [3]: no activity
4 | AMX201.H1: rRfY aptamer clone (nucleic acid) rGrGrArGfCrGfCrAfCfUfCrArGfCfCrAfCfUfUfUrAfCrGrGfUrGrArArArGfUfCfUfCfUfCrGrGrGrGfUfUfCfCrGrArGfUfUrAfCrGrGfUrGfCrGfUfUfUfCrGrAfCfCfUfCfUfCfUrGfCfUrArGfC | 2.61 | 2.46 | 189 | – | – | – | –
5 | AMX198.E11: rRfY aptamer clone (nucleic acid) rGrGrArGfCrGfCrAfCfUfCrArGfCfCrAfCrGrGfUrArAfCrAfUfUrGfUfUfUfCfCrGrGfCrGrAfUfUfCfUfUfUrGrArAfCrGfCfCrGfUfCrGfUrGrGfUfUfUfCrGrAfCfCfUfCfUfCfUrGfCfUrArGfC | 1.03 | 2.37 | 1060 | – | – | – | –
6 | AMX198.A10: rRfY aptamer clone (nucleic acid) rGrGrArGfCrGfCrAfCfUfCrArGfCfCrAfCfCrArGfUfUrAfUrGfCfUrGrGfCfUfUfUrGrGfUfCfUfUfUrGrAfCfUrGfUfCfUrGrArGfUrGfUfUfCrGfUfUfUfCrGrAfCfCfUfCfUfCfUrGfCfUrArGfC | 1.26 | 5.74 | 1860 | – | – | – | –
7 | AMX198.E5: rRfY aptamer clone (nucleic acid) rGrGrArGfCrGfCrAfCfUfCrArGfCfCrAfCfUfUfCrGrAfCfUfUfUfCrAfUrGfUfCfUrGrArArGfUfCfCfCfUrGfCrArGfUrGfCrGrArGrArGrAfCrGfUfUfUfCrGrAfCfCfUfCfUfCfUrGfCfUrArGfC | 1.60 | 1.56 | 172 | – | – | – | –
8 | AMX200.C11: DNA SELEX 1 aptamer clone (nucleic acid, DNA, backbone not given here, DNA SELEX 1 aptamer clone) DNA: CTACCTACGATCTGACTAGCGGAATGAGAGTGCTGATGGATTGCTCAGGTCTGCTGGCTGCTTACTCTCATGTAGTTCC | – | – | – | 6.00 | 3.64 | 26 | –
9 | AMX200.F11: DNA SELEX 1 aptamer clone (nucleic acid, DNA, backbone not given here, DNA SELEX 1 aptamer clone) DNA: CTACCTACGATCTGACTAGCGGAATGAGGATGCTGGTGGATTGCTCAGGTCTGCTGGCTGCTTACTCTCATGTAGTTCC | – | – | – | 3.83 | 3.25 | 34 | –
10 | AMX199.C4: DNA SELEX 1 aptamer clone (nucleic acid, DNA, backbone not given here, DNA SELEX 1 aptamer clone) DNA: CTACCTACGATCTGACTAGCGGAATGAGGATGCTGATGGATTGCACAGGTCTGCTGGCTGCTTACTCTCATGTAGTTCC | – | – | – | 3.60 | 2.85 | 34 | –
11 | AMX199.C2: DNA SELEX 1 aptamer clone (nucleic acid, DNA, backbone not given here, DNA SELEX 1 aptamer clone) DNA: CTACCTACGATCTGACTAGCGGAATGAGAATGCTGGTGGATTGCCCAGGTCTGCTGGCTGCTTACTCTCATGTAGTTCC | – | – | – | 5.09 | 4.61 | 17 | –
12 | AMX199.F7: DNA SELEX 1 aptamer clone (nucleic acid, DNA, backbone not given here, DNA SELEX 1 aptamer clone) DNA: CTACCTACGATCTGACTAGCGGAATGAGAGTGCTGGTGGATTGCTCAGGTCTGCTGGCTGCTTACTCTCATGTAGTTCC | – | – | – | 5.47 | 5.00 | 22 | –
13 | AMX199.B7: DNA SELEX 1 aptamer clone (nucleic acid, DNA, backbone not given here, DNA SELEX 1 aptamer clone) DNA: CTACCTACGATCTGACTAGCGGGATGAGAGTGCTGGTGGATTGCTCAGGTCTGCTGGCTGCTTACTCTCATGTAGTTCC | – | – | – | 4.08 | 3.65 | 29 | –
14 | AMX200.D3: DNA SELEX 1 aptamer clone (nucleic acid, DNA, backbone not given here, DNA SELEX 1 aptamer clone) DNA: CTACCTACGATCTGACTAGCGCAATGAGGATGCTGATGGATTGCTCAGGTCTGCTGGCTGCTTACTCTCATGTAGTTCC | – | – | – | 2.68 | 2.41 | 36 | –
15 | AMX199.B3: DNA SELEX 1 aptamer clone (nucleic acid, DNA, backbone not given here, DNA SELEX 1 aptamer clone) DNA: CTACCTACGATCTGACTAGCGGAATGAGAATGCTGATGGATTGCTCAGGTCTGCTGGCTGCTTACTCTCATGTAGTTCC | – | – | – | 1.76 | 1.99 | 30 | –
16 | AMX199.G10: DNA SELEX 1 aptamer clone (nucleic acid, DNA, backbone not given here, DNA SELEX 1 aptamer clone) DNA: CTACCTACGATCTGACTAGCGGAATGAGAATGTTGGTGGATTGCTCAGGTCTGCTGGCTGCTTACTCTCATGTAGTTCC | – | – | – | 4.97 | 2.66 | 22 | –
17 | AMX199.D11: DNA SELEX 1 aptamer clone (nucleic acid, DNA, backbone not given here, DNA SELEX 1 aptamer clone) DNA: CTACCTACGATCTGACTAGCGGAATGAGAATGCTGGTGGATTGCTCAGGTCTGCTGGCTGCTTACTCTCATGTAGTTCC | – | – | – | 4.19 | 3.42 | 30 | –
18 | AMX205.D11: rRdY aptamer clone (nucleic acid) rGrGrArGdCrGdCrAdCdTdCrArGdCdCrAdCrGrGdCrAdCrGrAdCrGrGdTrGrAdTrGrArAdTdTrArGdCrGdCrGrGdTrGdTdCrGrGdTrGrGdTrGdTdCrAdTdTdTdCrGrAdCdCdTdCdTdCdTrGdCdTrArGdC | – | – | – | – | – | – | Screen- Human/No Protein [1, 7]: 2.22; Screen- Rabbit/No Protein ([2]; rRdY aptamers): 2.07; Inhibition of full length hVWF binding in FACS assay, IC50 range [3]: no activity; Kd [4, 8]: 124 nM
